In the supplement of paper PMC10065799, “High-throughput profiling of sequence recognition by tyrosine kinases and SH2 domains using bacterial peptide display” (eLife, 2023):

molecular target: Fes (UniProt P07332); assay: phosphorylation enrichment, bacterial display (enrichment ratio); higher = better substrate or ligand; peptides without Tyr show the background
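Also: 11-residue human phosphosite peptides and single-mutation variants displayed on the E. coli surface, counted by deep sequencing, each peptide's frequency after selection divided by its frequency in the unselected input library; frequency after pTyr selection over input frequency; kinase dosed for 20-30% of maximal phosphorylation in three min.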

Fes, sequence (P07332 whole entry, looked up): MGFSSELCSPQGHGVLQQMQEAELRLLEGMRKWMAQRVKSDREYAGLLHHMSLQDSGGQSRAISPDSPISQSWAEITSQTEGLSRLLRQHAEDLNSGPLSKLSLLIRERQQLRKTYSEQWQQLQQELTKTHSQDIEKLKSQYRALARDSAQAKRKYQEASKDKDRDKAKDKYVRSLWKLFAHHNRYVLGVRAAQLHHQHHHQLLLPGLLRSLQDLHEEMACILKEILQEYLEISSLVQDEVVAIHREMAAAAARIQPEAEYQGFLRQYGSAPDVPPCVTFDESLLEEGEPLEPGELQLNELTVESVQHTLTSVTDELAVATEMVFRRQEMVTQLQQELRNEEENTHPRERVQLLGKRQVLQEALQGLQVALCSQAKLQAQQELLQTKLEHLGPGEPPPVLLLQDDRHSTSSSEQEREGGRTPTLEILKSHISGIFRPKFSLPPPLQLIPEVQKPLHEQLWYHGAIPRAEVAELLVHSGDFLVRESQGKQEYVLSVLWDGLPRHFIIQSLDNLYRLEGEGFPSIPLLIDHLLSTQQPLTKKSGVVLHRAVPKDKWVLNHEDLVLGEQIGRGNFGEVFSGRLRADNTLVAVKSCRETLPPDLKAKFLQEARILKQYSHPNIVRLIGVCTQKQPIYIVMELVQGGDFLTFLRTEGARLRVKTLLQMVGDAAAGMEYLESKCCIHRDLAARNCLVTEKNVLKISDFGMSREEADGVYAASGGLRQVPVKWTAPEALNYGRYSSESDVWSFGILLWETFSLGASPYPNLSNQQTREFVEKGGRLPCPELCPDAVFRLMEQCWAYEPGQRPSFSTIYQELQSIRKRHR

Compared with SHNKFYMLVAR [MFSD8_Y134_YF], ADPQEYIPLPA [JAKtide_2014] is lower in phosphorylation enrichment: 1.15 for the first, 0.983 for the second.

First: KDFTIYNPNLL [VANGL1_Y290]
Second: EYLHKYKGFKI [SYNE1_Y6953_Q6951H]
The phosphorylation enrichment of the first is lower: 0.835 for the first, 1.01 for the second.

First: TFEFRYLEDQD [CNOT3_Y746_R750Q_YF]
Second: DELDKYSEVLK [TPM1_Y60_A63V]
The phosphorylation enrichment of the first is lower: 1.44 for the first, 1.66 for the second.

Going from TQRPFYKGGGG [TYROBP_Y112_YF] to TMETKYDNISR [SETDB2_Y477_V473M], the phosphorylation enrichment rises from 0.512 to 0.689.

Going from IAINKYEVSLI [MYO7A_Y2136_G2137E] to NGPDVYVLPLT [AATK_Y93], the phosphorylation enrichment falls from 0.99 to 0.792.

Compared with PVQAAYQQVVA [HBB_Y131_K133Q], VIKDKYPKAHY [APTX_Y209_R213H] is lower in phosphorylation enrichment: 0.754 for the first, 0.599 for the second.

Compared with SVTCTYYPALN [TP53_Y126_S127Y], KKDGPYDVVVL [PARK7_Y67_E64D] is lower in phosphorylation enrichment: 1.36 for the first, 0.9 for the second.

Going from AVLALYNSTRD [TGFB1_Y81] to NGTVSYAIVAG [CDH23_Y1672_T1671S], the phosphorylation enrichment rises from 0.942 to 0.961.

First: FRKNIYNVKST [SYNE2_Y575_YF]
Second: MAPQMYESHLP [NCAPD2_Y6_F8S]
The phosphorylation enrichment of the first is lower: 0.439 for the first, 0.555 for the second.

First: EFISECCGEII [EZH2_Y641_Y641C]
Second: VMLENYSNLLS [ZFP69_Y109_V113L]
The phosphorylation enrichment of the first is higher: 1.18 for the first, 0.832 for the second.

Going from VGEGPYLISDL [ABCC12_Y7] to VFDHIYTTQSD [RET_Y928_L923V], the phosphorylation enrichment falls from 1.01 to 0.871.

First: SGDITYGQFAQ [PLCG1_Y210]
Second: KRAIGYYSATS [FAM120A_Y327]
The phosphorylation enrichment of the first is higher: 0.632 for the first, 0.472 for the second.

First: ALVDTYCRHNF [HLA-DRB1_Y107_A103L_YF]
Second: TLCLCYKETEE [ATP8B1_Y658_I661T]
The phosphorylation enrichment of the first is lower: 0.935 for the first, 1.64 for the second.

Going from SSNLFYRCLTA [CNGA3_Y169_W171C_YF] to CEHRGHLFLAI [TEK_Y897_Y897H_YF], the phosphorylation enrichment falls from 1.36 to 1.11.

Going from TTICKYITPME [GUCY2C_Y839_S840I] to TAALWYIYSHT [ENG_Y612], the phosphorylation enrichment rises from 0.873 to 1.14.

Compared with FLAVGYHKPYI [IDS_Y225_H229Y], GQKTLYSFFSP [UNG_Y8] is higher in phosphorylation enrichment: 1.16 for the first, 1.2 for the second.

For QDEHGYISRCF [HSPB1_Y133], the phosphorylation enrichment was 1.19.

molecular target: FGFR1 (UniProt P11362); assay: as above
Sequence (P11362 whole entry, looked up): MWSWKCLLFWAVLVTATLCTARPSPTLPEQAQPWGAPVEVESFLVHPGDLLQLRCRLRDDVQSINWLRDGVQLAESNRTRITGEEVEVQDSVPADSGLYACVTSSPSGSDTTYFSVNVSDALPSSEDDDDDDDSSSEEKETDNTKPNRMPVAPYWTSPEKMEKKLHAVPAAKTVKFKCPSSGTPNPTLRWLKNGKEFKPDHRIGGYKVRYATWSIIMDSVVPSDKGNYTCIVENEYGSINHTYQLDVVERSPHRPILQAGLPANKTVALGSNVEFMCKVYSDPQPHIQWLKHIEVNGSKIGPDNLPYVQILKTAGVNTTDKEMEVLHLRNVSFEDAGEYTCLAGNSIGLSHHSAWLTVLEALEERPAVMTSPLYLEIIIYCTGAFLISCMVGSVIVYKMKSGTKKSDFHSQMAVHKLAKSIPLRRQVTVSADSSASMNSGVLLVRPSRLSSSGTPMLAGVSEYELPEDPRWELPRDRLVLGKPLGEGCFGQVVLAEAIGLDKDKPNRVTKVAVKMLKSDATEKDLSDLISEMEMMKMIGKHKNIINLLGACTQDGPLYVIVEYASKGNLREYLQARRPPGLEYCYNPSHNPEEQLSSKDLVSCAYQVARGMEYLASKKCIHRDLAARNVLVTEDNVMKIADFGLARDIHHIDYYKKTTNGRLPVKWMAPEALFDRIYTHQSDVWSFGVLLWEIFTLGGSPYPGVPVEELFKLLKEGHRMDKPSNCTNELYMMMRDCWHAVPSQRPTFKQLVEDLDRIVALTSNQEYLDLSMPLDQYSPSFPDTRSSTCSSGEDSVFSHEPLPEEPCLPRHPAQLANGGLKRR

Going from SHNKFYMLVAR [MFSD8_Y134_YF] to ADPQEYIPLPA [JAKtide_2014], the phosphorylation enrichment rises from 0.532 to 0.75.

Compared with KDFTIYNPNLL [VANGL1_Y290], EYLHKYKGFKI [SYNE1_Y6953_Q6951H] is lower in phosphorylation enrichment: 0.434 for the first, 0.403 for the second.

Compared with TFEFRYLEDQD [CNOT3_Y746_R750Q_YF], DELDKYSEVLK [TPM1_Y60_A63V] is higher in phosphorylation enrichment: 0.497 for the first, 0.616 for the second.

Going from TQRPFYKGGGG [TYROBP_Y112_YF] to TMETKYDNISR [SETDB2_Y477_V473M], the phosphorylation enrichment rises from 0.346 to 0.678.

First: IAINKYEVSLI [MYO7A_Y2136_G2137E]
Second: NGPDVYVLPLT [AATK_Y93]
The phosphorylation enrichment of the first is lower: 0.445 for the first, 0.685 for the second.

First: PVQAAYQQVVA [HBB_Y131_K133Q]
Second: VIKDKYPKAHY [APTX_Y209_R213H]
The phosphorylation enrichment of the first is higher: 0.673 for the first, 0.34 for the second.

First: SVTCTYYPALN [TP53_Y126_S127Y]
Second: KKDGPYDVVVL [PARK7_Y67_E64D]
The phosphorylation enrichment of the first is higher: 0.499 for the first, 0.449 for the second.

Going from AVLALYNSTRD [TGFB1_Y81] to NGTVSYAIVAG [CDH23_Y1672_T1671S], the phosphorylation enrichment rises from 0.493 to 0.496.

Compared with FRKNIYNVKST [SYNE2_Y575_YF], MAPQMYESHLP [NCAPD2_Y6_F8S] is higher in phosphorylation enrichment: 0.357 for the first, 0.477 for the second.

First: EFISECCGEII [EZH2_Y641_Y641C]
Second: VMLENYSNLLS [ZFP69_Y109_V113L]
The phosphorylation enrichment of the first is higher: 0.723 for the first, 0.559 for the second.

Going from VGEGPYLISDL [ABCC12_Y7] to VFDHIYTTQSD [RET_Y928_L923V], the phosphorylation enrichment rises from 0.466 to 0.55.

First: SGDITYGQFAQ [PLCG1_Y210]
Second: KRAIGYYSATS [FAM120A_Y327]
The phosphorylation enrichment of the first is higher: 0.426 for the first, 0.412 for the second.

Compared with ALVDTYCRHNF [HLA-DRB1_Y107_A103L_YF], TLCLCYKETEE [ATP8B1_Y658_I661T] is higher in phosphorylation enrichment: 0.472 for the first, 0.573 for the second.

First: SSNLFYRCLTA [CNGA3_Y169_W171C_YF]
Second: CEHRGHLFLAI [TEK_Y897_Y897H_YF]
The phosphorylation enrichment of the first is lower: 0.491 for the first, 0.536 for the second.

First: TTICKYITPME [GUCY2C_Y839_S840I]
Second: TAALWYIYSHT [ENG_Y612]
The phosphorylation enrichment of the first is higher: 0.558 for the first, 0.497 for the second.

Going from FLAVGYHKPYI [IDS_Y225_H229Y] to GQKTLYSFFSP [UNG_Y8], the phosphorylation enrichment rises from 0.446 to 1.18.

QDEHGYISRCF [HSPB1_Y133] gave a phosphorylation enrichment of 0.555.

molecular target: EPHB1 (UniProt P54762); assay: as above
Sequence (P54762 whole entry, looked up): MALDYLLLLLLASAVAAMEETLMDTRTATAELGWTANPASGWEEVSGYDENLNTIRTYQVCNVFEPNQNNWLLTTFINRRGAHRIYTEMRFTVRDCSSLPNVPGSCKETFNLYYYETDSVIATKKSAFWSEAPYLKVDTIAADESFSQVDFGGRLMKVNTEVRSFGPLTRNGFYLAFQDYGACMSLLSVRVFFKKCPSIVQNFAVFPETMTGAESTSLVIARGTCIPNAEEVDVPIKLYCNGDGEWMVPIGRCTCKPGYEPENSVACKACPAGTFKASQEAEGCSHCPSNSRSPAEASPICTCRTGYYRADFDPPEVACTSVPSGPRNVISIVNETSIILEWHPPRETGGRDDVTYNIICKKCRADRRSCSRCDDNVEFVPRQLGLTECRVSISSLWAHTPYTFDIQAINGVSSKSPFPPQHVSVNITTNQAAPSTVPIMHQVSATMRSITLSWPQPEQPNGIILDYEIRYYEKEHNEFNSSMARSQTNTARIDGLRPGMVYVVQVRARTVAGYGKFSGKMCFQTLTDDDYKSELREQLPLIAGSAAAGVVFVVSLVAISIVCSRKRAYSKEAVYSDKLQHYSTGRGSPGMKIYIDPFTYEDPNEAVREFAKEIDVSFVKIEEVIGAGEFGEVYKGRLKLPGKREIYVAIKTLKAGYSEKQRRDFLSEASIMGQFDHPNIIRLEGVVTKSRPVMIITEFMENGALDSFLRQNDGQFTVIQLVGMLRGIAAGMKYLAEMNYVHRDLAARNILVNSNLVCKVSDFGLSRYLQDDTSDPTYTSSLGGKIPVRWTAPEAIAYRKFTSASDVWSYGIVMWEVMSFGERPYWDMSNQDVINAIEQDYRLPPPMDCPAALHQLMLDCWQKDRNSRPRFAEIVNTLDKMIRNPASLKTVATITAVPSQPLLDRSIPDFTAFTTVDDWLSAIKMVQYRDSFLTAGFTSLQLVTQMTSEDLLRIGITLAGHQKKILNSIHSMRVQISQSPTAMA

Going from SHNKFYMLVAR [MFSD8_Y134_YF] to ADPQEYIPLPA [JAKtide_2014], the phosphorylation enrichment falls from 0.673 to 0.529.

Going from KDFTIYNPNLL [VANGL1_Y290] to EYLHKYKGFKI [SYNE1_Y6953_Q6951H], the phosphorylation enrichment rises from 0.419 to 0.509.

Compared with TFEFRYLEDQD [CNOT3_Y746_R750Q_YF], DELDKYSEVLK [TPM1_Y60_A63V] is higher in phosphorylation enrichment: 0.646 for the first, 0.667 for the second.

Compared with TQRPFYKGGGG [TYROBP_Y112_YF], TMETKYDNISR [SETDB2_Y477_V473M] is higher in phosphorylation enrichment: 0.221 for the first, 0.356 for the second.

Going from IAINKYEVSLI [MYO7A_Y2136_G2137E] to NGPDVYVLPLT [AATK_Y93], the phosphorylation enrichment rises from 0.505 to 0.626.

First: PVQAAYQQVVA [HBB_Y131_K133Q]
Second: VIKDKYPKAHY [APTX_Y209_R213H]
The phosphorylation enrichment of the first is higher: 0.566 for the first, 0.268 for the second.

First: SVTCTYYPALN [TP53_Y126_S127Y]
Second: KKDGPYDVVVL [PARK7_Y67_E64D]
The phosphorylation enrichment of the first is lower: 0.645 for the first, 0.991 for the second.

First: AVLALYNSTRD [TGFB1_Y81]
Second: NGTVSYAIVAG [CDH23_Y1672_T1671S]
The phosphorylation enrichment of the first is lower: 0.466 for the first, 0.661 for the second.

First: FRKNIYNVKST [SYNE2_Y575_YF]
Second: MAPQMYESHLP [NCAPD2_Y6_F8S]
The phosphorylation enrichment of the first is lower: 0.385 for the first, 0.548 for the second.

First: EFISECCGEII [EZH2_Y641_Y641C]
Second: VMLENYSNLLS [ZFP69_Y109_V113L]
The phosphorylation enrichment of the first is lower: 0.672 for the first, 1.97 for the second.

Going from VGEGPYLISDL [ABCC12_Y7] to VFDHIYTTQSD [RET_Y928_L923V], the phosphorylation enrichment falls from 0.65 to 0.458.

Going from SGDITYGQFAQ [PLCG1_Y210] to KRAIGYYSATS [FAM120A_Y327], the phosphorylation enrichment falls from 0.47 to 0.366.

Compared with ALVDTYCRHNF [HLA-DRB1_Y107_A103L_YF], TLCLCYKETEE [ATP8B1_Y658_I661T] is higher in phosphorylation enrichment: 0.55 for the first, 0.879 for the second.

First: SSNLFYRCLTA [CNGA3_Y169_W171C_YF]
Second: CEHRGHLFLAI [TEK_Y897_Y897H_YF]
The phosphorylation enrichment of the first is higher: 0.638 for the first, 0.625 for the second.

First: TTICKYITPME [GUCY2C_Y839_S840I]
Second: TAALWYIYSHT [ENG_Y612]
The phosphorylation enrichment of the first is lower: 0.485 for the first, 0.794 for the second.

First: FLAVGYHKPYI [IDS_Y225_H229Y]
Second: GQKTLYSFFSP [UNG_Y8]
The phosphorylation enrichment of the first is lower: 0.591 for the first, 2.58 for the second.

In the case of QDEHGYISRCF [HSPB1_Y133], the phosphorylation enrichment is reported as 0.718.

molecular target: Fyn (UniProt P06241); assay: as above
Sequence (P06241 whole entry, looked up): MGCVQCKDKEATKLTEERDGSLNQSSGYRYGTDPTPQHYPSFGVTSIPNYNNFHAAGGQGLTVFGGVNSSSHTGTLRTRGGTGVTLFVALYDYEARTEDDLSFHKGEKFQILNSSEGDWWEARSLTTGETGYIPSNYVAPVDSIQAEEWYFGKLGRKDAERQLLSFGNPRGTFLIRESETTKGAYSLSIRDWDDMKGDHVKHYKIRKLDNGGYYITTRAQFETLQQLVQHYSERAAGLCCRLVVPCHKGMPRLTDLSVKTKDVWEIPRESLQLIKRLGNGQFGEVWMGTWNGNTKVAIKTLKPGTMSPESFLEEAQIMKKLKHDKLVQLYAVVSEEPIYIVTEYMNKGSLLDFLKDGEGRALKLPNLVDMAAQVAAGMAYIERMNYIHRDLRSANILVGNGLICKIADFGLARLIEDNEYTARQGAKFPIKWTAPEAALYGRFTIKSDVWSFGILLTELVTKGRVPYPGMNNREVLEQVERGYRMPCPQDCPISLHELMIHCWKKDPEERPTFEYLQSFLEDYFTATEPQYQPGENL

First: SHNKFYMLVAR [MFSD8_Y134_YF]
Second: ADPQEYIPLPA [JAKtide_2014]
The phosphorylation enrichment of the first is lower: 0.452 for the first, 0.512 for the second.

Compared with KDFTIYNPNLL [VANGL1_Y290], EYLHKYKGFKI [SYNE1_Y6953_Q6951H] is lower in phosphorylation enrichment: 0.787 for the first, 0.461 for the second.

Going from TFEFRYLEDQD [CNOT3_Y746_R750Q_YF] to DELDKYSEVLK [TPM1_Y60_A63V], the phosphorylation enrichment rises from 0.506 to 0.599.

First: TQRPFYKGGGG [TYROBP_Y112_YF]
Second: TMETKYDNISR [SETDB2_Y477_V473M]
The phosphorylation enrichment of the first is lower: 0.314 for the first, 0.414 for the second.

Compared with IAINKYEVSLI [MYO7A_Y2136_G2137E], NGPDVYVLPLT [AATK_Y93] is higher in phosphorylation enrichment: 0.514 for the first, 2.32 for the second.

Going from PVQAAYQQVVA [HBB_Y131_K133Q] to VIKDKYPKAHY [APTX_Y209_R213H], the phosphorylation enrichment falls from 0.6 to 0.278.

Compared with SVTCTYYPALN [TP53_Y126_S127Y], KKDGPYDVVVL [PARK7_Y67_E64D] is higher in phosphorylation enrichment: 0.48 for the first, 0.562 for the second.

First: AVLALYNSTRD [TGFB1_Y81]
Second: NGTVSYAIVAG [CDH23_Y1672_T1671S]
The phosphorylation enrichment of the first is lower: 0.462 for the first, 0.638 for the second.

Compared with FRKNIYNVKST [SYNE2_Y575_YF], MAPQMYESHLP [NCAPD2_Y6_F8S] is higher in phosphorylation enrichment: 0.398 for the first, 0.45 for the second.

First: EFISECCGEII [EZH2_Y641_Y641C]
Second: VMLENYSNLLS [ZFP69_Y109_V113L]
The phosphorylation enrichment of the first is higher: 0.498 for the first, 0.396 for the second.

First: VGEGPYLISDL [ABCC12_Y7]
Second: VFDHIYTTQSD [RET_Y928_L923V]
The phosphorylation enrichment of the first is lower: 0.507 for the first, 2.12 for the second.

First: SGDITYGQFAQ [PLCG1_Y210]
Second: KRAIGYYSATS [FAM120A_Y327]
The phosphorylation enrichment of the first is higher: 8.52 for the first, 0.456 for the second.

First: ALVDTYCRHNF [HLA-DRB1_Y107_A103L_YF]
Second: TLCLCYKETEE [ATP8B1_Y658_I661T]
The phosphorylation enrichment of the first is lower: 0.454 for the first, 0.708 for the second.

Compared with SSNLFYRCLTA [CNGA3_Y169_W171C_YF], CEHRGHLFLAI [TEK_Y897_Y897H_YF] is higher in phosphorylation enrichment: 0.384 for the first, 0.516 for the second.

First: TTICKYITPME [GUCY2C_Y839_S840I]
Second: TAALWYIYSHT [ENG_Y612]
The phosphorylation enrichment of the first is lower: 0.418 for the first, 1.52 for the second.

First: FLAVGYHKPYI [IDS_Y225_H229Y]
Second: GQKTLYSFFSP [UNG_Y8]
The phosphorylation enrichment of the first is lower: 0.46 for the first, 4.16 for the second.

For QDEHGYISRCF [HSPB1_Y133], the phosphorylation enrichment was 0.741.
